Columns and labels:
[1] = target: GFP 1-9 OPT (Aequorea victoria); assay: split GFP complementation, sandwich format
[2] = target: sulfite reductase-GFP S11 wild type (Pyrobaculum aerophilum; Aequorea victoria); assay: split GFP complementation in vitro, soluble lysate with excess purified fusion protein

| Substance | fold increase of complementation rate compared to the starting strand construct [1] [fold] | fold improvement of in vitro complementation relative to the same amount of refolded superfolder GFP 1-10 [2] [fold] |
| --- | --- | --- |
| (GFP S10 SM5)-L1-sulfite reductase-L2-(GFP S11 SM5) | 20 |  |
| GFP 1-10 OPT |  | 80 |

Source: patent US20140141415A1
